This note sets out measurements from paper PMC10107491, “Phosphorylation of S11 in PHR1 negatively controls its transcriptional activity”.

In this data set the target is PHR1-His (UniProt Q94CL7 1-409). Put plainly: EMSA; without SnRK1 (unphosphorylated); 10 mM Tris-HCl pH 8.0, 100 mM NaCl, 10% glycerol, 2 mM DTT, 0.05% NP-40; 0.5 ug protein in 30 ul, 22 C, 30 min; 4.5% acrylamide gel, 0.5x TBE. The following applies: protein: recombinant; tags: His (pET28b(+)); chain copies: 2; label: 32P 5' end label on sense strand (T4 PNK); blunt.
Chain of PHR1-His (Q94CL7 whole entry): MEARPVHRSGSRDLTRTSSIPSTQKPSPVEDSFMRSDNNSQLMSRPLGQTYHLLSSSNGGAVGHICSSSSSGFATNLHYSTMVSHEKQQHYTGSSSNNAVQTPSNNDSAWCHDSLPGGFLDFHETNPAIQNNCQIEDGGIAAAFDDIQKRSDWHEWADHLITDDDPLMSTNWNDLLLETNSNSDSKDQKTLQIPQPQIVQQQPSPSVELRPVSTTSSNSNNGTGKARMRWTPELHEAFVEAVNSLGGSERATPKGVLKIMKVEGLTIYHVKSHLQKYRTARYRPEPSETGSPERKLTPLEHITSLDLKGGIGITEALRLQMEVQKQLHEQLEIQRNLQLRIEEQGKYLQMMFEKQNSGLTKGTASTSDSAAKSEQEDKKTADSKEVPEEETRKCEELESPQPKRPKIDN

B1: AtIPS1 P1BS probe (dsDNA)
DNA 1: CAATTTTGGTAACGGCATATTCCATCGGATGATCCAAAATTCTCAAAA
DNA 2: TTTTGAGAATTTTGGATCATCCGATGGAATATGCCGTTACCAAAATTG
Regarding B1, the binding result is “binds”.
